Laboratory results as given in PMC8897147 (Acta Pharmaceutica Sinica. B, 2021).
Each block holds one molecule with its values, some of them ahead of it.

Key:
CLR = CLR (Homo sapiens, UniProt Q16602); experiment: BRET GPCR–RAMP interaction; format: binding; conditions: COS-7; receptor-Rluc8:RAMP-Ypet 1:0.25 to 1:16; pH 7.4, 37 °C; mean ± SEM n≥3
GCGR [1] = biological target: T1, GCGR (Homo sapiens, UniProt P47871); experiment: BRET GPCR–RAMP interaction; format: binding; conditions: COS-7; receptor-Rluc8:RAMP-Ypet 1:0.25 to 1:16; pH 7.4, 37 °C; mean ± SEM n≥3
T1 sequence (P47871 26-477, species assumed): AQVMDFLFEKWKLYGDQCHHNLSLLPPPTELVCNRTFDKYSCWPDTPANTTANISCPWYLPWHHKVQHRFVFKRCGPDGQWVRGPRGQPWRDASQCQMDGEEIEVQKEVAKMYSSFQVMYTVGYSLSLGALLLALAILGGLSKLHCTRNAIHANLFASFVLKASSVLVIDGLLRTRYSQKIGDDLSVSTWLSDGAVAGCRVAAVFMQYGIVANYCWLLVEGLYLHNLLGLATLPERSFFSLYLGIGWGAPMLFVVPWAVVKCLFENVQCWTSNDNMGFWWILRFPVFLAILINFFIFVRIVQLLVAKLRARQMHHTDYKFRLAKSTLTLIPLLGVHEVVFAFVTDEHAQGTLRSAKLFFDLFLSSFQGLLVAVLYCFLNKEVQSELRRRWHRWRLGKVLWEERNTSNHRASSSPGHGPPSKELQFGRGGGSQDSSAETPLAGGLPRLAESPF

GHRHR [2] = biological target: T2, GHRHR (Homo sapiens, UniProt Q02643); experiment: BRET GPCR–RAMP interaction; format: binding; conditions: COS-7; receptor-Rluc8:RAMP-Ypet 1:0.25 to 1:16; pH 7.4, 37 °C; mean ± SEM n≥3
T2 sequence (Q02643 23-423): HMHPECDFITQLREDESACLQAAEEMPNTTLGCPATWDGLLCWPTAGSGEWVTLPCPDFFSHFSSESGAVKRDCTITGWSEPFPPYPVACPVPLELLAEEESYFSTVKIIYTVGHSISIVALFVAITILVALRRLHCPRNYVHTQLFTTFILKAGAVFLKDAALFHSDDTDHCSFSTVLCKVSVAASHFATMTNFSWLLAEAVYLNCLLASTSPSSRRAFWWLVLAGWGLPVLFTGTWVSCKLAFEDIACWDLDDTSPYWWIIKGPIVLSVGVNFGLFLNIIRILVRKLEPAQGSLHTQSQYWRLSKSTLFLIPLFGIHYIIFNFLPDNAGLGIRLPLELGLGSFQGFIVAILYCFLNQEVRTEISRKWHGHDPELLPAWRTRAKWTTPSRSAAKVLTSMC

SV1 [3] = biological target: T3, SV1 (Homo sapiens, UniProt Q02643); experiment: BRET GPCR–RAMP interaction; format: binding; conditions: COS-7; receptor-Rluc8:RAMP-Ypet 1:0.25 to 1:16; pH 7.4, 37 °C; mean ± SEM n≥3
T3 sequence (Q02643 90-423 limits assumed): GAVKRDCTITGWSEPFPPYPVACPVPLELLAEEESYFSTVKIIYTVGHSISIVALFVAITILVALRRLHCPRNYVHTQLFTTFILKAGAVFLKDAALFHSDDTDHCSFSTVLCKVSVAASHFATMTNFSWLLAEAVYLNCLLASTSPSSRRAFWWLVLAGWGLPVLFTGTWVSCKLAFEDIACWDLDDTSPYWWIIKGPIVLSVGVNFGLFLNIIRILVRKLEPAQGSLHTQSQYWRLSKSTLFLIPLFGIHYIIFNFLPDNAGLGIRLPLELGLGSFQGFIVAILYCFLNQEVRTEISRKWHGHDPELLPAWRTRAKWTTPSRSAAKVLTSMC

GIPR = biological target: T4, GIPR (Homo sapiens, UniProt P48546); experiment: BRET GPCR–RAMP interaction; format: binding; conditions: COS-7; receptor-Rluc8:RAMP-Ypet 1:0.25 to 1:16; pH 7.4, 37 °C; mean ± SEM n≥3
T4 sequence (P48546 22-466): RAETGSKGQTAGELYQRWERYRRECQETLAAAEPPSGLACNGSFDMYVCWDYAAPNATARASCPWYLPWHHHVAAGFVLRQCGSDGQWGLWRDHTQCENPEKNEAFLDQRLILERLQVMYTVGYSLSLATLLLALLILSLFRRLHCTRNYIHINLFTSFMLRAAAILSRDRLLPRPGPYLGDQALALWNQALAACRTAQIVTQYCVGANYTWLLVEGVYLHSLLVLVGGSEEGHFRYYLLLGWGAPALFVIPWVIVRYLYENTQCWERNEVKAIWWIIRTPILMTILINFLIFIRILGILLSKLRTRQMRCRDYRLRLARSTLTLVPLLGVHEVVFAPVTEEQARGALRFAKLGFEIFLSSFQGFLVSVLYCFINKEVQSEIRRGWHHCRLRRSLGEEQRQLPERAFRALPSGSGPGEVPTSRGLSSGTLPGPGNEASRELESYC

GLP-1R = GLP-1R (Homo sapiens, UniProt P43220); experiment: BRET GPCR–RAMP interaction; format: binding; conditions: COS-7; receptor-Rluc8:RAMP-Ypet 1:0.25 to 1:16; pH 7.4, 37 °C; mean ± SEM n≥3
Chain of GLP-1R (P43220 24-463): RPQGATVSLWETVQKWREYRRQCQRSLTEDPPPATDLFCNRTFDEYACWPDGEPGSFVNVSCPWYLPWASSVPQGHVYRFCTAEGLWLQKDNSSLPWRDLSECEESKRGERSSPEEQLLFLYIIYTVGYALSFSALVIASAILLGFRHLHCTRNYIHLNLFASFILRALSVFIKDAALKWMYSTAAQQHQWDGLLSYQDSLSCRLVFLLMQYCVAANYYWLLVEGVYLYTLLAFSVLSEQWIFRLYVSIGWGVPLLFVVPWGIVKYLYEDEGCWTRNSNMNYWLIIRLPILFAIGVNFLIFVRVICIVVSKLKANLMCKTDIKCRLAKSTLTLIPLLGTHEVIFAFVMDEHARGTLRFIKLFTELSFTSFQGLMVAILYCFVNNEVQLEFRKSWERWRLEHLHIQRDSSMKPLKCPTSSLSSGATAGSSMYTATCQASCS

GLP-2R [4] = biological target: T5, GLP-2R (Homo sapiens, UniProt O95838); experiment: BRET GPCR–RAMP interaction; format: binding; conditions: COS-7; receptor-Rluc8:RAMP-Ypet 1:0.25 to 1:16; pH 7.4, 37 °C; mean ± SEM n≥3
T5 sequence (O95838 1-553): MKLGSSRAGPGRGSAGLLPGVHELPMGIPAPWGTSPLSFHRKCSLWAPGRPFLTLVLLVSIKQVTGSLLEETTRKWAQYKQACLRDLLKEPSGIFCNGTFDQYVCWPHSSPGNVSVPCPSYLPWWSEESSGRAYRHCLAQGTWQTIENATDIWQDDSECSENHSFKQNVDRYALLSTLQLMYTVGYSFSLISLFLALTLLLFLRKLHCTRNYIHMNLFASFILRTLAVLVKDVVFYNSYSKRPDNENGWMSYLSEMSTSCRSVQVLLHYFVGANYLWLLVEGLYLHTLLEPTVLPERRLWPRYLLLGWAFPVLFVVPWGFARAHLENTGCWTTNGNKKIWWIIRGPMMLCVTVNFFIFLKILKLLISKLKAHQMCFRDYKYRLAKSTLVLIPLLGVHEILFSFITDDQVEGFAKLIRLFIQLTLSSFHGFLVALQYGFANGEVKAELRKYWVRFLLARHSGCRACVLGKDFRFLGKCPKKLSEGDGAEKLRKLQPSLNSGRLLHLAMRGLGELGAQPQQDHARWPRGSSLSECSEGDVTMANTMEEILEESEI

SCTR = experiment: BRET GPCR–RAMP interaction; format: binding; conditions: COS-7; receptor-Rluc8:RAMP-Ypet 1:0.25 to 1:16; pH 7.4, 37 °C; mean ± SEM n≥3
GLP-2R [5] = biological target: T5, GLP-2R; experiment: Gαq activation; format: cell-based; conditions: HEK293A; RAMP2
COS-7 cells = experiment: RAMP cell surface expression; format: cell-based
GCGR [6] = biological target: T1, GCGR; conditions: CHO-K1 ref [38]; cited from earlier work
GCGR [7] = biological target: T1, GCGR; conditions: CHO-K1 ref [38]; cited from earlier work; remark: listed apart in the source
GHRHR [8] = biological target: T2, GHRHR; experiment: cAMP accumulation; conditions: COS-7; RAMP3
SV1 [9] = biological target: T3, SV1; experiment: cAMP accumulation; conditions: COS-7; RAMP3

Chain of CLR (Q16602 23-461): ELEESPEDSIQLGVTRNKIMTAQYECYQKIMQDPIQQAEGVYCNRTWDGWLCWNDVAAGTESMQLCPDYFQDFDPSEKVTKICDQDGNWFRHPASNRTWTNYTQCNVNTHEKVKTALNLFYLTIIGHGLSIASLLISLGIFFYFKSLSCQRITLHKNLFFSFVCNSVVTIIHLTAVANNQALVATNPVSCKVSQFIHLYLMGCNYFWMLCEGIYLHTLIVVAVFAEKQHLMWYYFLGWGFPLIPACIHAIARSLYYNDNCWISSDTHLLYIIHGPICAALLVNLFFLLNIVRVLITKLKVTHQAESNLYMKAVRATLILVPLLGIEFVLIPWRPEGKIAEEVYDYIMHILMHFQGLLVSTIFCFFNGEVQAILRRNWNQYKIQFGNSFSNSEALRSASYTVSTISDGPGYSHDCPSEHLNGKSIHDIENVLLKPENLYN

Bmax (maximum measured BRET value) (CLR): 0.468 ± 0.042 | Bmax (maximum measured BRET value) (GCGR [1]): 0.578 ± 0.072 | Bmax (maximum measured BRET value) (GHRHR [2]): 0.393 ± 0.025 | Bmax (maximum measured BRET value) (SV1 [3]): 0.843 ± 0.102 | Bmax (maximum measured BRET value) (GIPR): 0.474 ± 0.122 | Bmax (maximum measured BRET value) (GLP-1R): 0.397 ± 0.092 | Bmax (maximum measured BRET value) (GLP-2R [4]): 0.567 ± 0.234 | effect of RAMP on potency, Gαq activation (GLP-2R [5]): nominal reduction
B1: receptor activity-modulating protein 2 (protein)
chain: QPLPTTGTPGSEGGTVKNYETAVQFCWNHYKDQMDPIEKDWCDWAMISRPYSTLRDCLEHFAELFDLGFPNPLAERIIFETHQIHFANCSLVQPTFSDPPEDVLLAMIIAPICLIPFLITLVVWRSKDSEAQA
modifications: left off: Ypet, C-terminal, kept
Bmax (maximum measured BRET value) (SCTR): 0.434 ± 0.051 | RAMP cell surface expression (COS-7 cells; co-expression with glucagon receptor family members, FLAG-RAMP): negligible | Gαq signaling (GCGR [6]): attenuated Gαq signaling | β-arrestin recruitment (GCGR [7]): abolished β-arrestin recruitment

Bmax (maximum measured BRET value) (CLR): 0.511 ± 0.058 | Bmax (maximum measured BRET value) (GCGR [1]): 1.102 ± 0.165 | Bmax (maximum measured BRET value) (GHRHR [2]): 0.948 ± 0.139 | Bmax (maximum measured BRET value) (SV1 [3]): 1.842 ± 0.754 | Bmax (maximum measured BRET value) (GIPR): 0.729 ± 0.061 | Bmax (maximum measured BRET value) (GLP-1R): 0.862 ± 0.100 | Bmax (maximum measured BRET value) (GLP-2R [4]): 0.689 ± 0.128 | effect of RAMP on cAMP response (GHRHR [8]): no effect | effect of RAMP on cAMP response (SV1 [9]): marked response
B2: receptor activity-modulating protein 3 (protein)
chain: RAGGCNETGMLERLPLCGKAFADMMGKVDVWKWCNLSEFIVYYESFTNCTEMEANVVGCYWPNPLAQGFITGIHRQFFSNCTVDRVHLEDPPDEVLIPLIVIPVVLTVAMAGLVVWRSKRTDTLL
modifications: left off: Ypet, C-terminal, kept
Bmax (maximum measured BRET value) (SCTR): 0.995 ± 0.058 | RAMP cell surface expression (COS-7 cells; co-expression with GCGR, FLAG-RAMP): negative | RAMP cell surface expression (COS-7 cells; co-expression with SCTR, FLAG-RAMP, effect of receptor on RAMP3): negative | RAMP cell surface expression (COS-7 cells; co-expression with SV1, FLAG-RAMP): negative
